Laboratory results from patent US20240335558A1, “ISOLATED POLYPEPTIDE AND USE THEREOF” (GLYCO-THERAPY BIOTECHNOLOGY CO., LTD., priority 2021, published 2024).

Key:
Format in all cases: biochemical
Trastuzumab-G2F [1] = assay: Transfer of GDP-FAmP4Biotin to Trastuzumab-G2F by different HpFTs (% of conversion by MS); conditions: donor GDP-FAmP4Biotin 1 mM, enzyme 0.5 mg/mL, 30° C., 3 h; FIG. 1
Method: (§1) To 40 mM Tris-HCl (pH 7.5) buffer were added Trastuzumab-G2F (2 mg/mL final), GDP-FAmP4Biotin (1 mM final), MgCl2 (20 mM final), and different HpFT enzymes (HpFT-4HR, HpFT-4HR(M4), HpFT-4HR(M7), HpFT-6HR, HpFT-3HR, HpFT-2HR, HpFT-1HR, or HpFT-0HR) (0.5 mg/mL final) in sequence, and the resulting mixed solution was allowed to react at 30° C. for 3 h. Three parallels were set up for each group. After the reaction time point was reached, to the reaction solution was added 10 mM LacNAc (N-acetyl-D-lactosamine), and the reaction was terminated by a desalting column (Zeba™ Spin Desalting Columns/2 ml/40K, Thermo Fisher Scientific), and finally mass spectrometry was carried out and % of conversion was calculated. % of conversion=(MAR0 peak intensity*0+MAR1peak intensity*1+MAR2 peak intensity*2+MAR3 peak intensity*3+MAR4 peak intensity*4)/4* (MAR0 peak intensity+MAR1 peak intensity+MAR2 peak intensity+MAR3 peak intensity+MAR4 peak intensity)*100%.

Trastuzumab-G2F [2] = assay: HpFT-2HR and HpFT-4HR transferring GDP-FAmP4Biotin or GDP-FAzP4Biotin to Trastuzumab-G2F; conditions: enzyme 0.5 mg/mL, 30° C., 6 h, FIG. 6(A)
Method: as §1
To 40 mM Tris-HCl (pH 7.5) buffer were added Trastuzumab-G2F (2 mg/mL final), GDP-FAmP4Biotin or GDP-FAzP4Biotin (1 mM final), MgCl2 (20 mM final), and HpFT-2HR or HpFT-4HR (0.5 mg/mL final) in sequence, and the resulting mixed solution was allowed to react at 30° C. for 6 h. Three parallels were set up for each group. After the reaction time point was reached, to the reaction solution was added 10 mM LacNAc, and the reaction was terminated by a desalting column (Zeba™ Spin Desalting Columns/2 ml/40K, Thermo Fisher Scientific), and finally mass spectrometry was carried out and % of conversion was calculated. % of conversion was calculated according to Example 17.

Durvalumab-G2F = assay: HpFT-2HR and HpFT-4HR transferring GDP-FAmSucMMAE to Durvalumab-G2F; conditions: donor 1 mM, enzyme 0.5 mg/mL, 30° C., 3 h and 6 h; FIG. 7B
Method: as §1
To 40 mM Tris-HCl (pH 7.5) buffer were added Trastuzumab-G2F or Durvalumab-G2F (2 mg/mL final), GDP-FAmSucMMAE (1 mM final), MgCl2 (20 mM final), and HpFT-2HR or HpFT-4HR (0.5 mg/mL final) in sequence, and the resulting mixed solution was allowed to react at 30° C. for 3 h and 6 h. Three parallels were set up for each group. […]

[3] = system: Trastuzumab-(GalNAzβ1,4)GlcNAc; assay: HpFT-2HR and HpFT-4HR transferring GDP-FAmSucMMAE to Trastuzumab-(GalNAzβ1,4)GlcNAc; conditions: donor 1 mM, enzyme 0.5 mg/mL, 30° C., 3 h and 6 h; FIG. 8A
Method: as §1, with “added Trastuzumab-(Fucα1,6)(Galβ1,4)GlcNAc” for “added Trastuzumab-G2F”, “HpFT-2HR, HpFT-1HR” for “HpFT-2HR, HpFT-1HR,”, “for 1” for “for 3”, “mM LacNA,” for “mM LacNAc (N-acetyl-D-lactosamine),”, “peak intensity*2)/2*” for “peak intensity*2+MAR3 peak intensity*3+MAR4 peak intensity*4)/4*”, “peak” for “peak intensity+MAR3 peak intensity+MAR4 peak”
To 40 mM Tris-HCl (pH 7.5) buffer were added Trastuzumab-(GalNAzβ1,4)GlcNAc or Durvalumab-(GalNAzβ1,4)GlcNAc (2 mg/mL final), GDP-FAmSucMMAE (1 mM final), MgCl2 (20 mM final), and HpFT-2HR or HpFT-4HR (0.5 mg/mL final) in sequence, and the resulting mixed solution was allowed to react at 30° C. for 3 h and 6 h. Three parallels were set up for each group. […]

B1: HpFT-2HR: H. pylori α-1,3-fucosyltransferase variant: catalytically active domain, two heptapeptide repeat sequences and C-terminus fused His tag (protein)
chain: MFQPLLDAFIESASIEKMVSKSPPPPLKIAVANWWGDEEIKEFKKSVLYFILSQRYAITLHQNPNESSDLVFSNPLGAARKILSYQNTKRVFYTGENESPNFNLFDYAIGFDELDFNDRYLRMPLYYAHLHYEAELVNDTTAPYKLKDNSLYALKKPSHHFKENHPNLCAVVNDESDLLKRGFASFVASNANAPMRNAFYDALNSIEPVTGGGSVRNTLGYKVGNKSEFLSQYKFNLCFENSQGYGYVTEKILDAYFSHTIPIYWGSPSVAKDFNPKSFVNVHDFNNFDEAIDYIKYLHTHPNAYLDMLYENPLNTLDGKAYFYQDLSFKKILDFFKTILENDTIYHNNPFIFYRDLHEPLISIDDLRVNYDDLRVNYLEHHHHHH
modifications: Catalytically active domain of Helicobacter pylori Alpha-(1,3)-fucosyltransferase (GenBank No.AAD07710.1) with 2 heptapeptide repeats and a C-terminal His tag
catalytic activity among the HpFT variants (Trastuzumab-G2F [1]): highest catalytic activity | catalytic activity as compared with HpFT-4HR (% of conversion) (Trastuzumab-G2F [1]): significantly improved catalytic activity | activity in catalyzing the transfer of GDP-FAmP4Biotin relative to transfer of GDP-FAzP4Biotin (Trastuzumab-G2F [2]; donor 1 mM): significantly higher | activity in catalyzing the transfer of GDP-FAmP4Biotin, as compared with HpFT-4HR (Trastuzumab-G2F [2]; donor GDP-FAmP4Biotin 1 mM): significantly improved activity | activity in catalyzing the transfer of GDP-FAzP4Biotin, as compared with HpFT-4HR (Trastuzumab-G2F [2]; donor GDP-FAzP4Biotin 1 mM): significantly improved activity | activity in catalyzing the transfer of GDP-FAmSucMMAE, as compared with HpFT-4HR (Durvalumab-G2F): significantly improved activity | activity in catalyzing the transfer of GDP-FAmSucMMAE, as compared with HpFT-4HR [3]: significantly improved activity
